Data published in US7244826B1, “Internalizing ERB2 antibodies” (The Regents of the University of California, priority 1998, dated 2007).
Entries after “also recorded” stand apart in the source; their conditions may differ. Where two headings read alike, the source gives them in different places.

Experiments:
[1] = biological target: ErbB2 on cells (SKBR3, SK-OV-3, MCF7 tumor cell lines) (UniProt P04626); assay: cell-based or functional assay
[2] = biological target: ErbB2 on cells (SKBR3, SK-OV-3, MCF7 tumor cell lines) (UniProt P04626); assay: 5.0 × 10^11 phage on about 1.0 × 10^5 SKBR3 cells at 37° C.; surface bound phage eluted with low pH glycine, titered on E. coli TG1
SK-OV-3 cells [3] = details: in vitro; cited from earlier work
tumor = details: cited from earlier work
SKBR3 cells [4] = type: cell-based
SKBR3 cells [5] = type: cell-based; remark: listed apart in the source
[6] = biological target: ErbB2 on cells (SKBR3, SK-OV-3, MCF7 tumor cell lines) (UniProt P04626)
[7] = biological target: T1, ErbB2 (form in the assay not stated) (UniProt P04626 23-1255); assay: method and form of ErbB2 not stated
T1 construct: also called c-erbB2

SK-OV-3 cells [8] = assay: Staining of SK-OV-3 cells by native scFv; type: cell-based; details: moderate ErbB2 expression
SKBR3 cells [9] = assay: Staining of SKBR3 cells by phage antibodies or native scFv; details: high ErbB2 expression; for staining of SKBR3 cells by phage antibody: phage-displayed
MCF7 cells = assay: Staining of MCF7 cells by phage antibodies or native scFv; type: cell-based; details: low ErbB2 expression
[10] = Gel filtration of native scFv; type: physicochemical
ErbB2 = ErbB2 (Homo sapiens, UniProt P04626); assay: Epitope mapping competition assay: inhibition of phage binding by soluble scFv
Description: Bound phages were detected with an anti-M13 biotinylated Ab and streptavidin-PE.
Neither of these phage were isolated when the same library was selected on recombinant ErbB2. […] This was confirmed using a competition assay (FIG. 2).

[11] = system: normal breast cell line HST578; assay: Staining of normal breast cell line by phage antibodies or native scFv; type: cell-based
[12] = increasing concentrations of soluble scFv, bound phage by anti-M13 biotinylated Ab and streptavidin-PE, MFI

C6.5 diabody phage
cells that had internalized phage (confocal microscopy, SKBR3 cells) [1]: 20% | phage titer, Lysed cell fraction (internalized phage) [1]: 1.7e+07 | titer of cell surface bound phage, 1st glycine wash [2]: 1.8e+07 | titer of cell surface bound phage, 2nd glycine wash [2]: 2.8e+06

C6.5 diabody: dimeric scFv from C6.5 V-genes, linker between VH and VL shortened from 15 to 5 amino acids
apparent affinity compared to C6.5 scFv (SK-OV-3 cells [3]): significantly higher | % ID/g tumor (tumor; at 24 hours, diabody study): 6.5 % ID/g | tumor:organ AUC ratios (tumor; retentions examined over 72 hours, cumulative AUC): greater than reported for other monovalent or divalent scFv molecules | cells that had internalized phage (SKBR3 cells [4]; 37° C.): ~20% | increase of titer after cell lysis from the second glycine wash (SKBR3 cells [5]): > 50 fold | more phage bound to the cell surface than the anti-Botulinum phage (SKBR3 cells [5]): 30 times | phage titer, 1st glycine wash (SKBR3 cells [5]): 1.8 × 10^7 | phage titer, 2nd glycine wash (SKBR3 cells [5]): 2.8 × 10^6 | phage titer, lysed cell fraction (SKBR3 cells [5]): 1.7 × 10^7 | recovery of phage from inside the cell, higher than for anti-Botulinum phage (SKBR3 cells [5]): 200 fold

C6.5 phage (anti-ErbB2 C6.5 scFv displayed on phage)
phage titer, Lysed cell fraction (internalized phage) [1]: 6.8e+07 | titer of cell surface bound phage, 1st glycine wash [2]: 1.2e+07 | titer of cell surface bound phage, 2nd glycine wash [2]: 5.2e+06

irrelevant anti-Botulinum phage (scFv)
phage titer, Lysed cell fraction (internalized phage) [1]: 600000 | titer of cell surface bound phage, 1st glycine wash [6]: 600000 | titer of cell surface bound phage, 2nd glycine wash [6]: 100000

B1: F5 scFv (native purified soluble scFv) (scFv, not shown: small tags and cut ends)
scFv: QVQLVESGGGLVQPGGSLRLSCAASGFTFRSYAMSWVRQAPGKGLEWVSAISGRGDNTYYADSVKGRFTISRDNSKNTLYLQMNSLRAEDTAVYYCAKMTSNAFAFDYWGQGTLVTVSSGGGGSGGGGSGGGGSQSVLTQPPSVSGAPGQRVTISCTGSSSNIGAGYGVHWYQQLPGTAPKLLIYGNTNRPSGVPDRFSGFKSGTSASLAITGLQAEDEADYYCQFYDSSLSGWVFGGGTKLTVLG
notes: also called 3TF5; scFv-F5
Kd [7]: 320 nM

B2: F5: internalizing human anti-c-erbB-2 scFv, SEQ ID NO: 1, ATCC plasmid deposit PTA-7843, also referred to as 3TF5 (protein)
scFv: QVQLVESGGGLVQPGGSLRLSCAASGFTFRSYAMSWVRQAPGKGLEWVSAISGRGDNTYYADSVKGRFTISRDNSKNTLYLQMNSLRAEDTAVYYCAKMTSNAFAFDYWGQGTLVTVSSGGGGSGGGGSGGGGSQSVLTQPPSVSGAPGQRVTISCTGSSSNIGAGYGVHWYQQLPGTAPKLLIYGNTNRPSGVPDRFSGFKSGTSASLAITGLQAEDEADYYCQFYDSSLSGWVFGGGTKLTVLG
staining of SK-OV-3 cells by native purified scFv (SK-OV-3 cells [8]): intermediate staining | staining of SKBR3 cells by native purified scFv (SKBR3 cells [9]; native purified scFv): intensely stain | staining of SKBR3 cells by phage antibody (SKBR3 cells [9]): intensely stain | staining of SKBR3 cells by phage antibody (SKBR3 cells [9]; listed as 3TF5 phage): more intensely than C6.5 phage | staining of MCF7 cells by native purified scFv (MCF7 cells; native purified scFv): minimal staining | staining of MCF7 cells by phage antibody (MCF7 cells; phage-displayed): much more intensely then C6.5 | internalization of native purified scFv by SKBR3 cells (in words) (SKBR3 cells [4]): efficiently internalized; also recorded: internalized faster than C6.5 | internalization of phage by SKBR3 cells at 4° C. (in words) (SKBR3 cells [4]): no internalization | cells that had internalized phage (SKBR3 cells [4]; 37° C.): greater than 95% | internalization of phage by SKBR3 cells (in words) (SKBR3 cells [4]; 37° C.): internalized | oligomeric state by gel filtration [10]: only as a monomer with no appreciable dimerization or aggregation | epitope of F5 and C1 relative to each other (ErbB2; competition assay): recognize the same epitope | epitope relative to C6.5 (ErbB2; competition assay): a different epitope than C6.5 | epitope relative to Genentech anti-ErbB2 antibody 4D5 (ErbB2; competition assay): recognize a different epitope | inhibition of binding of C6.5 phage by soluble scFv (ErbB2; [12]): not | inhibition of binding of F5 or C1 phage by soluble scFv (ErbB2; [12]): inhibited | staining of normal breast cell line HST578 by native purified scFv [11]: do not stain
